Test results from patent US20250325630A1, “HOMODIMER FUSION PROTEINS FOR TREATING ATOPIC DERMATITIS” (Intervet Inc., priority 2021, published 2025).

T1: canine IL-13 (cIL-13) (Canis lupus familiaris, UniProt Q9N0W9)
T1 sequence (Q9N0W9 19-131): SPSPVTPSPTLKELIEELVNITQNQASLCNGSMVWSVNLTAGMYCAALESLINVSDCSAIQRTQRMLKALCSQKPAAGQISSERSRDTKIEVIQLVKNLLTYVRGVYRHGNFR

T2: canine IL-4 (cIL-4) (Canis lupus familiaris, UniProt O77762)
T2 sequence (O77762 25-132): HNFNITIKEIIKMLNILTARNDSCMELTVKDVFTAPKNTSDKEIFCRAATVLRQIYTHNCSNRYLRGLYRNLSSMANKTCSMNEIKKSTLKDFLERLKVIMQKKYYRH

B1: cIL-13Rα2-cFc-YD: cIL-13Rα2-cIgGB-Fc with L18Y/T22D half-life substitutions, SEQ ID NO: 13 (protein)
chain: SMLSNAEIKVNPPQDFEIVDPGYLGYLSLQWQPPLFPDNFKECTIEYELKYRNIDSENWKTIITKNLHYKDGFDLNKGIEAKINTLLPAQCTNGSEVRSSWAETTYWTSPQGNRETKIQDMDCVYYNWQYLVCSWKPGMGVHFDTNYQLFYWYEGLDHSAECTDYIKVNGKNMGCRFPYLESSDYKDFYICVNGSSESQPIRPSYFIFQLQNIVKPMPPDYLSLTVKNSEEINLKWNMPKGPIPAKCFIYEIEFTEDGTTWVTTTVENEIQITRTSNESQKLCFLVRSKVNIYCSDDGIWSEWSDEQCWKGDIWKETPKRENGRVPRPPDCPKCPAPEMLGGPSVFIFPPKPKDTLYIARDPEVTCVVVDLDPEDPEVQISWFVDGKQMQTAKTQPREEQFNGTYRVVSVLPIGHQDWLKGKQFTCKVNNKALPSPIERTISKARGQAHQPSVYVLPPSREELSKNTVSLTCLIKDFFPPDIDVEWQSNGQQEPESKYRTTPPQLDEDGSYFLYSKLSVDKSRWQRGDTFICAVMHEALHNHYTQESLSHSPGK
modifications: homodimer
B2: cIL-13Rα2-cFc-YTE: cIL-13Rα2-cIgGB-Fc with L18Y/A20T/T22E half-life substitutions, SEQ ID NO: 10 (protein)
chain: SMLSNAEIKVNPPQDFEIVDPGYLGYLSLQWQPPLFPDNFKECTIEYELKYRNIDSENWKTIITKNLHYKDGFDLNKGIEAKINTLLPAQCTNGSEVRSSWAETTYWTSPQGNRETKIQDMDCVYYNWQYLVCSWKPGMGVHFDTNYQLFYWYEGLDHSAECTDYIKVNGKNMGCRFPYLESSDYKDFYICVNGSSESQPIRPSYFIFQLQNIVKPMPPDYLSLTVKNSEEINLKWNMPKGPIPAKCFIYEIEFTEDGTTWVTTTVENEIQITRTSNESQKLCFLVRSKVNIYCSDDGIWSEWSDEQCWKGDIWKETPKRENGRVPRPPDCPKCPAPEMLGGPSVFIFPPKPKDTLYITREPEVTCVVVDLDPEDPEVQISWFVDGKQMQTAKTQPREEQFNGTYRVVSVLPIGHQDWLKGKQFTCKVNNKALPSPIERTISKARGQAHQPSVYVLPPSREELSKNTVSLTCLIKDFFPPDIDVEWQSNGQQEPESKYRTTPPQLDEDGSYFLYSKLSVDKSRWQRGDTFICAVMHEALHNHYTQESLSHSPGK
modifications: homodimer
B3: cIL-13Rα2-cFc: homodimer of canine IL-13Rα2 ECD, IgGB hinge region and IgGB cFc fusion protein, SEQ ID NO: 7 (protein)
chain: SMLSNAEIKVNPPQDFEIVDPGYLGYLSLQWQPPLFPDNFKECTIEYELKYRNIDSENWKTIITKNLHYKDGFDLNKGIEAKINTLLPAQCTNGSEVRSSWAETTYWTSPQGNRETKIQDMDCVYYNWQYLVCSWKPGMGVHFDTNYQLFYWYEGLDHSAECTDYIKVNGKNMGCRFPYLESSDYKDFYICVNGSSESQPIRPSYFIFQLQNIVKPMPPDYLSLTVKNSEEINLKWNMPKGPIPAKCFIYEIEFTEDGTTWVTTTVENEIQITRTSNESQKLCFLVRSKVNIYCSDDGIWSEWSDEQCWKGDIWKETPKRENGRVPRPPDCPKCPAPEMLGGPSVFIFPPKPKDTLLIARTPEVTCVVVDLDPEDPEVQISWFVDGKQMQTAKTQPREEQFNGTYRVVSVLPIGHQDWLKGKQFTCKVNNKALPSPIERTISKARGQAHQPSVYVLPPSREELSKNTVSLTCLIKDFFPPDIDVEWQSNGQQEPESKYRTTPPQLDEDGSYFLYSKLSVDKSRWQRGDTFICAVMHEALHNHYTQESLSHSPGK
modifications: homodimer
B4: cIL-13Rα1-cFc-YTE: cIL-13Rα1-cIgGB-Fc with L18Y/A20T/T22E half-life substitutions, SEQ ID NO: 9 (protein)
chain: GGVAAPTETQPPVTNLSVSVENLCTVIWTWDPPEGASPNCTLRYFSHFDNKQDKKIAPETHRSKEVPLNERICLQVGSQCSTNESDNPSILVEKCTPPPEGDPESAVTELQCVWHNLSYMKCTWLPGRNTSPDTNYTLYYWHSSLGKILQCEDIYREGQHIGCSFALTNLKDSSFEQHSVQIVVKDNAGKIRPSFNIVPLTSHVKPDPPHIKRLFFQNGNLYVQWKNPQNFYSRCLSYQVEVNNSQTETNDIFYVEEAKCQNSEFEGNLEGTICFMVPGVLPDTLNTVRIRVRTNKLCYEDDKLWSNWSQAMSIGENTDPTPKRENGRVPRPPDCPKCPAPEMLGGPSVFIFPPKPKDTLYITREPEVTCVVVDLDPEDPEVQISWFVDGKQMQTAKTQPREEQFNGTYRVVSVLPIGHQDWLKGKQFTCKVNNKALPSPIERTISKARGQAHQPSVYVLPPSREELSKNTVSLTCLIKDFFPPDIDVEWQSNGQQEPESKYRTTPPQLDEDGSYFLYSKLSVDKSRWQRGDTFICAVMHEALHNHYTQESLSHSPGK
modifications: homodimer
B5: cIL-4Rα-cFc-H: cIL-4Rα-cIgGB-Fc with N202H half-life substitution, SEQ ID NO: 11 (protein)
chain: VKVLHEPSCFSDYISTSVCQWKMDHPTNCSAELRLSYQLDFMGSENHTCVPENREDSVCVCSMPIDDAVEADVYQLDLWAGQQLLWSGSFQPSKHVKPRTPGNLTVHPNISHTWLLMWTNPYPTENHLHSELTYMVNVSNDNDPEDFKVYNVTYMGPTLRLAASTLKSGASYSARVRAWAQTYNSTWSDWSPSTTWLNYYEPWEQHLPPKRENGRVPRPPDCPKCPAPEMLGGPSVFIFPPKPKDTLLIARTPEVTCVVVDLDPEDPEVQISWFVDGKQMQTAKTQPREEQFNGTYRVVSVLPIGHQDWLKGKQFTCKVNNKALPSPIERTISKARGQAHQPSVYVLPPSREELSKNTVSLTCLIKDFFPPDIDVEWQSNGQQEPESKYRTTPPQLDEDGSYFLYSKLSVDKSRWQRGDTFICAVMHEALHHHYTQESLSHSPGK
modifications: homodimer
B6: cIL-4Rα-cFc: homodimer of canine IL-4Rα ECD, IgGB hinge region and IgGB cFc fusion protein, SEQ ID NO: 5 (protein)
chain: VKVLHEPSCFSDYISTSVCQWKMDHPTNCSAELRLSYQLDFMGSENHTCVPENREDSVCVCSMPIDDAVEADVYQLDLWAGQQLLWSGSFQPSKHVKPRTPGNLTVHPNISHTWLLMWTNPYPTENHLHSELTYMVNVSNDNDPEDFKVYNVTYMGPTLRLAASTLKSGASYSARVRAWAQTYNSTWSDWSPSTTWLNYYEPWEQHLPPKRENGRVPRPPDCPKCPAPEMLGGPSVFIFPPKPKDTLLIARTPEVTCVVVDLDPEDPEVQISWFVDGKQMQTAKTQPREEQFNGTYRVVSVLPIGHQDWLKGKQFTCKVNNKALPSPIERTISKARGQAHQPSVYVLPPSREELSKNTVSLTCLIKDFFPPDIDVEWQSNGQQEPESKYRTTPPQLDEDGSYFLYSKLSVDKSRWQRGDTFICAVMHEALHNHYTQESLSHSPGK
modifications: homodimer
B7: cIL-4Rα-cFc-YTE: cIL-4Rα-cIgGB-Fc with L18Y/A20T/T22E half-life substitutions, SEQ ID NO: 8 (protein)
chain: VKVLHEPSCFSDYISTSVCQWKMDHPTNCSAELRLSYQLDFMGSENHTCVPENREDSVCVCSMPIDDAVEADVYQLDLWAGQQLLWSGSFQPSKHVKPRTPGNLTVHPNISHTWLLMWTNPYPTENHLHSELTYMVNVSNDNDPEDFKVYNVTYMGPTLRLAASTLKSGASYSARVRAWAQTYNSTWSDWSPSTTWLNYYEPWEQHLPPKRENGRVPRPPDCPKCPAPEMLGGPSVFIFPPKPKDTLYITREPEVTCVVVDLDPEDPEVQISWFVDGKQMQTAKTQPREEQFNGTYRVVSVLPIGHQDWLKGKQFTCKVNNKALPSPIERTISKARGQAHQPSVYVLPPSREELSKNTVSLTCLIKDFFPPDIDVEWQSNGQQEPESKYRTTPPQLDEDGSYFLYSKLSVDKSRWQRGDTFICAVMHEALHNHYTQESLSHSPGK
modifications: homodimer

How the values were obtained:
canine IL-13 (cIL-13) = target: T1, canine IL-13 (cIL-13); assay: Binding kinetics of cFc fusion proteins to canine IL-13 (OCTET HTX); details: for ka / kdis: Table 4, cIL-13; for ka: association rate constant; for kdis: dissociation rate constant
Protocol: (§1) The binding constants for the cFc fusion proteins provided in Tables 3 and 4 below, were determined using OCTET® HTX. All kinetics measurements were performed by OCTET® HTX using SA® biosensors and DATA ACQUISITION® 12.0 software. 10 μg/mL of biotin-labeled antigen, either canine IL-4 (cIL-4) or canine IL-13 (cIL-13) were loaded onto the SAR biosensors for 120 seconds. Next, the biosensors were placed into 1×pH 7.0 TBS/Casein buffer for 60 seconds for the blocking phase. For the association phase, antigen loaded biosensors were placed into 2-fold serial dilutions from 1 μM down to 15.6 nM of the wild-type, the bispecific, or the FcRn-mutant receptor Fc-fusions that recognized the cIL-4 or cIL-13 antigen in 1×pH 7.0 TBS/Casein buffer for 30 seconds. The last well was buffer alone and that sensor was used for reference sensor subtraction. Finally, the biosensors were placed into 1×pH 7.0 TBS/Casein buffer for 120 seconds for the dissociation phase. The results were then analyzed using Data Analysis 12.0 software and the curves were fitted using a 1:1 binding model.

canine IL-4 (cIL-4) = target: T2, canine IL-4 (cIL-4); assay: Binding kinetics of cFc fusion proteins to canine IL-4 (OCTET HTX); details: for ka / kdis: Table 3, cIL-4, ND = Binding Not Detected; for ka: association rate constant; for kdis: dissociation rate constant; for Kd: approximate values, read-out: binding constant (KD) with cIL-4
Protocol: as §1

Molecule | ka (canine IL-13 (cIL-13)) [M⁻¹ s⁻¹] | kdis (canine IL-13 (cIL-13)) [s⁻¹] | decrease in the affinity for cIL-13 relative to unmodified cIL-13Rα1-cFc (canine IL-13 (cIL-13)) | Kd (canine IL-13 (cIL-13); approximate values, read-out: binding constant (KD) with cIL-13) [nM] | loss in affinity for cIL-4 (KD times higher) relative to unmodified cIL-4Rα-cFc homodimer (canine IL-4 (cIL-4)) | ka (canine IL-4 (cIL-4)) [M⁻¹ s⁻¹] | kdis (canine IL-4 (cIL-4)) [s⁻¹] | Kd (canine IL-4 (cIL-4)) [nM]
B1 | 1.15e+06 | 5.07e-07 | – | – | – | – | – | –
B2 | 1.17e+06 | 5.04e-07 | – | – | – | – | – | –
B3 | 1e+06 | 7.45e-07 | – | – | – | – | – | –
B4 | 66500 | 0.0011 | about 4 fold | 20 | – | – | – | –
B5 | – | – | – | – | about 10 fold | 785000 | 9.88e-05 | 0.1
B6 | – | – | – | – | – | 703000 | 8.3e-07 | –
B7 | – | – | – | – | ~100 fold | 830000 | 9.23e-06 | 0.01
